One test concerns the target T1, DmGPCR1 (PnuFlyPep34651) (Drosophila melanogaster).
T1 chain: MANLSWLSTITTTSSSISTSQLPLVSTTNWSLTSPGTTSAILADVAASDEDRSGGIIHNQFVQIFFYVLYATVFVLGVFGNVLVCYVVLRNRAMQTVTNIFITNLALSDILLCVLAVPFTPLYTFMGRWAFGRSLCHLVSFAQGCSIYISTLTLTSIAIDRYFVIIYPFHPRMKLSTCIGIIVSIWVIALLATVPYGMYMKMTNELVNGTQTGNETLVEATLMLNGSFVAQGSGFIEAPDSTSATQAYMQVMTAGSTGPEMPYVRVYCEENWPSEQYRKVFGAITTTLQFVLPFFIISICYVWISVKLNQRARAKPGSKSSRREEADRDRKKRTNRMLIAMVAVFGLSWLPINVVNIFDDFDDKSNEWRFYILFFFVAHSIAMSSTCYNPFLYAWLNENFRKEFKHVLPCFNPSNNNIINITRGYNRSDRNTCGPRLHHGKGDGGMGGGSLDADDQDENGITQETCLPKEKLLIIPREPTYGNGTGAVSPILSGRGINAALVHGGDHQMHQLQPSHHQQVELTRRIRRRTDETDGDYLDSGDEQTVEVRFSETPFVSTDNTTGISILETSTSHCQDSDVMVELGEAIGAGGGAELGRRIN
Kind of test: cell-based or functional assay.

The next test concerns the target T2, DmGPCR6a (M811490) (Drosophila melanogaster, UniProt P25931 1-464).
T2 sequence (looked up): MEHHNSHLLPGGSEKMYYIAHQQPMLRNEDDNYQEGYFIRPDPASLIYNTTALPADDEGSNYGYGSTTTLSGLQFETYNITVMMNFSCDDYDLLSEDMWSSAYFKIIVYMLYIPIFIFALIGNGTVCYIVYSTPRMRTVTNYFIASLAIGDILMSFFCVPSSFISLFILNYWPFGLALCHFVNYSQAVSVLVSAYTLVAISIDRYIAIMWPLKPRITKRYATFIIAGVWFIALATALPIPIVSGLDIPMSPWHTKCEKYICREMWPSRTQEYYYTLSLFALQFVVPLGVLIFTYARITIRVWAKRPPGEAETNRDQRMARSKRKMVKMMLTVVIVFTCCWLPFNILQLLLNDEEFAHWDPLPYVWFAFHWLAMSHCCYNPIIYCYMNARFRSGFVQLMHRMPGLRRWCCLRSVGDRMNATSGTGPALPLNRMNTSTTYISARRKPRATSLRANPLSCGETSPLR
Kind of test: cell-based or functional assay.

Where no end group is shown, it is not given here.

In the case of ARGPQLRLRF-NH2 [ARGPQLRLRF-NH2], the “EC50, FLIPR assay” value with DmGPCR1 (PnuFlyPep34651) is 100 to 200 nM.

Consider FLFQPQRF-NH2 [human NPFF (FLFQPQRF-NH2)], for which, in the test with DmGPCR6a (M811490), the “GTPγS binding, fold increase, 5 µM NPFF” value stood at 4 fold.

The values above are taken from patent publication US20040121956A1 (PHARMACIA AND UPJOHN, published 2004).
